Data as given in paper PMC11315185 (Heliyon, 2024).

B1: Arabidopsis PUX4 (natural protein, Arabidopsis thaliana, UniProt Q8RWU7 1-303, looked up)
chain: MSSKDKKPSKPSSSRGGIRTLSDLNRRSGPDSDSDSDGPQEYYTGGEKSGMLVQDPSKKDDVDEIFNQARQLGAVEGPLEPPPSSRSFTGTGRLLSGENVPTGNQQPEPVVHNIVFWSNGFTIDDGPLRKLDDPENASFLESIRKSECPKELEPADRRAPVHVNLMRKEEKCPERQKRRVSFQGVGRTLGGSNEGSGSSSPVAPDSAPIPIQTEPAPSQSLVIDETVPTTSIQLRLADGTRLVAKFNHHHTVNDIRGFIDSSRPGASLNYQLQTMGFPPKPLTDLTQTIEEAGLANSVVLQKF
B2: P-NAD5_(SHP-UBX) (P-NAD5 with helix1 and the SEP domain deleted) (other)
chain: QVQLVESGGALVQPGGSLRLSCAASGFPVNRYSMRWYRQAPGKEREWVAGMSSAGDRSSYEDSVKGRFTISRDDARNTVYLQMNSLKPEDTAVYYCNVNVGFEYWGQGTQVTVSSEPPKPKNPFQGVGRTLGASGSGSSSAPQASSAPMNVAPAPSRGLVVDPAAPTTSIQLRLADGTRLVSRFNNHHTVRDVRGFIDASRPGGSKEYQLLTMGFPPKQLTELDQTIEQAGIANAVVIQKF
B3: Arabidopsis PUX3 (natural protein, Arabidopsis thaliana, UniProt Q9SUG6 1-302, looked up)
chain: MSSKDKKLSKPTSGRTGGIRTLSDLNRRSEPDSDSDSDGPQEYFTGGEKSGMLVQDPTKEPKHDDVDEIFNQARQLGAVEGPLEHPSSSRSFTGTGRLLSGESVPTALQQPEPVIHNIIFWSNGFTVDDGPLRKLDDPENASFLDSIRKSECPKELEPVDKRAPVHVNLMRRDEKCPEKEKLKVSFQGVGRTLGGASSSTASSQSNLTDVAAVQSPLQSLVVDETLPSTSIQLRLADGTRMVAKFNNHHTVNDIRGFIEFSRPGNPNNYTLQVMGFPPKPLTDPSQTIEQAGLASSVVIQKF

biological target: CDC48A-ND1 (a CDC48A construct containing the N and first ATPase domains) (Arabidopsis thaliana, UniProt P54609 1-484); assay: ITC
Sequence (P54609 1-484): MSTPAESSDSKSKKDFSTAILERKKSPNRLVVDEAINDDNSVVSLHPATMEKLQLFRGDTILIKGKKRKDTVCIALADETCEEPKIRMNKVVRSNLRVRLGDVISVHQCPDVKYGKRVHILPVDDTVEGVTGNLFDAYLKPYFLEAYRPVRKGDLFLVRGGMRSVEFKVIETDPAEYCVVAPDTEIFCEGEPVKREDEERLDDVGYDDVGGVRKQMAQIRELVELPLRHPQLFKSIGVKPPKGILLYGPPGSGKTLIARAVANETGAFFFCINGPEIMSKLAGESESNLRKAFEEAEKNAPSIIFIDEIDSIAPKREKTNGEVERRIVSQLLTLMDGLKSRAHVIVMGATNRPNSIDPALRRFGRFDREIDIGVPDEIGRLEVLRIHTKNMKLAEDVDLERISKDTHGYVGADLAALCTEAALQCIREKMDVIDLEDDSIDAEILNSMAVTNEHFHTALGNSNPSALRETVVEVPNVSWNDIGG

Row | Kd [µM] | stoichiometry N | Binder
1 | 2.7 ± 0.9 | ~0.5 | B1
2 | 12.3 ± 3.7 | 1 | B2
3 | 5.6 ± 1.6 | ~0.5 | B3
